From article doi:10.1101/122184 (bioRxiv, 2017)

Biological target: the molecule itself
Experiment: crystal structure

B1: BAR (bialaphos resistance; phosphinothricin acetyltransferase) from Streptomyces hygroscopicus (enzyme, UniProt P16426 1-183, looked up)
chain: MSPERRPADIRRATEADMPAVCTIVNHYIETSTVNFRTEPQEPQEWTDDLVRLRERYPWLVAEVDGEVAGIAYAGPWKARNAYDWTAESTVYVSPRHQRTGLGSTLYTHLLKSLEAQGFKSVVAVIGLPNDPSVRMHEALGYAPRGMLRAAGFKHGNWHDVGFWQLDFSLPVPPRPVLPVTEI
With B1 the “stoichiometry N” value was 2.
